Assay results published in patent US20030129189A1, “Tumor necrosis factor-gamma” (priority 1994, published 2003).

Tests used:
Assay in all cases: flow cytometry on transiently transfected cells
[1] = target: T1, DR6 on transiently transfected cells (UniProt O75509 42-655, limits assumed)
T1 construct: whole, on cells
T1 sequence (looked up): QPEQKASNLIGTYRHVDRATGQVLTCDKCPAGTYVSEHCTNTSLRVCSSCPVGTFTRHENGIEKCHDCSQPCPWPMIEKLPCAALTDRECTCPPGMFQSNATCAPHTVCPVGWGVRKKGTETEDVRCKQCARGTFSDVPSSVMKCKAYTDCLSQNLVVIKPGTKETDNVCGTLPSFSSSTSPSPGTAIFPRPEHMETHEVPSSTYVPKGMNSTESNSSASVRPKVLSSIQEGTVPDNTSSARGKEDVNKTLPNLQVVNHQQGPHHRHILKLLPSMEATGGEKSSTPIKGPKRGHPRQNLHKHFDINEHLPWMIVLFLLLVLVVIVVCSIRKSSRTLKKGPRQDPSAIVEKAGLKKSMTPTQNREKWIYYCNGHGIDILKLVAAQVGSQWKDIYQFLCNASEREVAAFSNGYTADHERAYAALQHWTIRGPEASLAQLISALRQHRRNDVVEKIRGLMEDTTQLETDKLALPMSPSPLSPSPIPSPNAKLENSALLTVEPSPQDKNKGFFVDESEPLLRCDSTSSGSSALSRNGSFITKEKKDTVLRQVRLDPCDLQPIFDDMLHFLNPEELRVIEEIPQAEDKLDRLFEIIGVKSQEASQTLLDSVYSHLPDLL
Method: (§1) One million cells, in 0.1 ml of FACS buffer (PBS, 0.1% BSA, 0.1% NaN₃), were incubated with 0.1-1 microgram of protein or antibody at RT for 15 min. The cells were washed with 3 ml of FACS buffer, reacted with biotinylated primary antibody, and stained with PE-conjugated secondary antibody at RT for 15 min. Cells were then washed again, resuspended in 0.5 microgram/ml of propidium iodide, and live cells were gated and analyzed on a FACScan using the CellQuest software (BD Biosciences).

[2] = target: T2, HveA on transiently transfected cells (UniProt Q92956 39-283, limits assumed)
T2 construct: whole, on cells
T2 sequence (looked up): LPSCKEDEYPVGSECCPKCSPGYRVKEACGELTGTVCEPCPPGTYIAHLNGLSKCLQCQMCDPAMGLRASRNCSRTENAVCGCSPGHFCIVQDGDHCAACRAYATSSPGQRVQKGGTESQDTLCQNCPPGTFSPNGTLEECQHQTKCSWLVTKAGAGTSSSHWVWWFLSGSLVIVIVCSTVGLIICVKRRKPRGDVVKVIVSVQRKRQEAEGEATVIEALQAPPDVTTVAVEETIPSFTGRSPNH
Method: as §1

[3] = target: T3, DR5 on transiently transfected cells (UniProt O14763 56-440, limits assumed)
T3 construct: whole, on cells
Method: as §1

[4] = target: T4, LTβR on transiently transfected cells (UniProt P36941 31-435, limits assumed)
T4 construct: whole, on cells
T4 sequence (P36941 31-435 limits assumed): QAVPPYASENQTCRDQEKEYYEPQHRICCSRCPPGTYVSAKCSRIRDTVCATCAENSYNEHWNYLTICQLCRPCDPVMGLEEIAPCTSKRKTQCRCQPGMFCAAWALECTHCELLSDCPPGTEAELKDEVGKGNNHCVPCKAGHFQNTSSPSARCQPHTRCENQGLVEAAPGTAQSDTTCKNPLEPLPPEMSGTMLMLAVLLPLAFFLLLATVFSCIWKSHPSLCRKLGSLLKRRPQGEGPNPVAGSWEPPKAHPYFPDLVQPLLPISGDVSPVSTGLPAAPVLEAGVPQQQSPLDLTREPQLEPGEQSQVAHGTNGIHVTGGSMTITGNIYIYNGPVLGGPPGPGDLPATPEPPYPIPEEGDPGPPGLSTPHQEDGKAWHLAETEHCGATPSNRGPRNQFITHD
Method: as §1

[5] = target: T5, DcR1 on transiently transfected cells (UniProt O14798 26-236, limits assumed)
T5 construct: whole, on cells
T5 sequence (looked up): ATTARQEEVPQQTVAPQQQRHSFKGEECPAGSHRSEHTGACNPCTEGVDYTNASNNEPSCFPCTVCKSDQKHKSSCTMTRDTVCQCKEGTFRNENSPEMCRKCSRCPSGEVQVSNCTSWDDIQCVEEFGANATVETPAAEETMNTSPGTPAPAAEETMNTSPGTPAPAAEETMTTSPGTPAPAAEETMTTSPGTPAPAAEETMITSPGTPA
Method: as §1

[6] = target: T6, CD27 on transiently transfected cells (UniProt P26842 20-260, limits assumed)
T6 construct: whole, on cells
T6 sequence (looked up): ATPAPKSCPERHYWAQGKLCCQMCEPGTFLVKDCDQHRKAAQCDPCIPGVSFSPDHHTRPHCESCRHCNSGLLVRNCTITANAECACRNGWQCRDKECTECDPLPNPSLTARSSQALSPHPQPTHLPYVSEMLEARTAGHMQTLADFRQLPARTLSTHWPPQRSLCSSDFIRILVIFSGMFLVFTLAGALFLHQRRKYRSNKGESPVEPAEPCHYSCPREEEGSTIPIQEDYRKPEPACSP
Method: as §1

[7] = target: T7, TNFR2 on transiently transfected cells (UniProt P20333 23-461, limits assumed)
T7 construct: whole, on cells
T7 sequence (looked up): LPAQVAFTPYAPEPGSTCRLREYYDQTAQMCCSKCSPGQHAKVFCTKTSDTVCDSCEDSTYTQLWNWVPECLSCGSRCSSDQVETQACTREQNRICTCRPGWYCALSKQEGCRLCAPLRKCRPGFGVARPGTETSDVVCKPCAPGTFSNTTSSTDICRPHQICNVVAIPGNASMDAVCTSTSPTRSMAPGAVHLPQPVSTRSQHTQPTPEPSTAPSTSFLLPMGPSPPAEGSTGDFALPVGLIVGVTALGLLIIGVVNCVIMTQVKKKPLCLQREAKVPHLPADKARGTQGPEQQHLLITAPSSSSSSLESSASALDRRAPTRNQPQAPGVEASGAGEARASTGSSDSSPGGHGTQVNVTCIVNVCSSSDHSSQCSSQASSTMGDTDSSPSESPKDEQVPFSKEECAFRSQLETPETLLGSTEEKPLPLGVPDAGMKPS
Method: as §1

[8] = target: T8, BCMA on transiently transfected cells (UniProt Q02223 1-184, limits assumed)
T8 construct: whole, on cells
T8 sequence (looked up): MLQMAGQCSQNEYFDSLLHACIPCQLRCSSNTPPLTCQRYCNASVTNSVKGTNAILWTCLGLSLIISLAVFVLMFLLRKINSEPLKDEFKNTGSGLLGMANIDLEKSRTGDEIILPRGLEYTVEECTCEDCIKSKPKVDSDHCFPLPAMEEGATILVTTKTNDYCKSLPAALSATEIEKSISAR
Method: as §1

[9] = target: T9, AITR on transiently transfected cells (UniProt Q9Y5U5 26-241, limits assumed)
T9 construct: whole, on cells
T9 sequence (looked up): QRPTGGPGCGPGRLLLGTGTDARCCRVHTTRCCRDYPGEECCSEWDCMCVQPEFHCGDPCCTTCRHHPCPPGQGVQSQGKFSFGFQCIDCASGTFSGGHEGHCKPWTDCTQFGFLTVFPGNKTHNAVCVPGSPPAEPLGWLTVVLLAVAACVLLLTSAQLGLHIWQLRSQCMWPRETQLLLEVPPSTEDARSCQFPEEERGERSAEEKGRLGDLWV
Method: as §1

Measured: binding result

B1: FLAG-tagged soluble TNF-gamma-beta (aa 72-251) (ligand)
chain: LKGQEFAPSHQQVYAPLRADGDKPRAHLTVVRQTPTQHFKNQFPALHWEHELGLAFTKNRMNYTNKFLLIPESGDYFIYSQVTFRGMTSECSEIRQAGRPNKPDSITVVITKVTDSYPEPTQLLMGTKSVCEVGSNWFQPIYLGAMFSLQEGDKLMVNVSDISLVDYTKEDKTFFGAFLL
notes: also called FLAG-TL1β; FLAG-TNF-gamma-beta; not shown: The N-terminal FLAG tag (pFLAG-CMV-1 vector) and any vector linker
no binding: all assays above
